In patent publication US20140031525A1, “MUTANT G-PROTEIN COUPLED RECEPTOR PROTEINS AND METHODS FOR PRODUCING THEM” (Heptares Therapeutics Limited, priority 2011, published 2014) one finds G protein activation and apparent thermostability data, which are given here for one molecule.

The test system of one data set is G proteins. The data set can be described thus: G protein activation by the engineered receptor. In kind it is biochemical.
The nature of data set [1]: Thermostability assay of detergent-solubilised receptor by [3H]-ZM241385 binding. In kind it is physicochemical, human. The following applies: in 0.1% decylmaltoside, 30 min heating. As for the experimental part: FIG. 1: Thermostability of the adenosine A2A receptor alone, in combination with T4 lysozyme fusion or with thermostabilising mutations. Receptors were solubilised from transiently transfected cells using 0.025% DDM. Samples were heated at the specified temperature for 30 minutes, quenched on ice and the amount of receptor remaining was determined by a single-point binding assay using 100 nM [^3H]-ZM-241,385. Data is shown for the wild type A2a receptor (circles), A2A-T4L (squares), A2A-StaR1 (previously Rant21, upright triangles), A2A-T4 engineered to include the A2A-StaR1 mutations in combination with the T4L fusion (A54L^2.52/T88A^3.36/K122A^4.43 N239A^6.41) (inverted triangles) and vs A2a-StaR2 (diamonds).
Transfected HEK293T cells were resuspended in ice cold buffer [50 mM Tris pH7.4; 400 mM NaCl; 1% DDM and protease inhibitors (Complete, Roche)]. After incubation for 1 h at 4° C., samples were centrifuged (16,000×g, 20 min, 4° C.) and the supernatant was detergent exchanged into 0.1% decylmaltoside (DM) from Ni-NTA resin.
Thermostability was assessed by incubating with [^3H]-ZM241385 radioligand (100 nM) at increasing temperatures for 30 min followed by a 5 minutes incubation on ice. Receptor bound and free radioligand were separated by gel filtration as previously described'

B1: A2A-StaR2: human adenosine A2A receptor with mutations A54L, T88A, K122A, V239A, R107A, L202A, L235A, S277A (protein, UniProt P29274 1-412, looked up, variant A54L T88A K122A V239A R107A L202A L235A S277A)
Adenosine receptor A2a: MPIMGSSVYITVELAIAVLAILGNVLVCWAVWLNSNLQNVTNYFVVSLAAADILVGVLAIPFAITISTGFCAACHGCLFIACFVLVLAQSSIFSLLAIAIDRYIAIAIPLRYNGLVTGTRAAGIIAICWVLSFAIGLTPMLGWNNCGQPKEGKNHSQGCGEGQVACLFEDVVPMNYMVYFNFFACVLVPLLLMLGVYLRIFAAARRQLKQMESQPLPGERARSTLQKEVHAAKSAAIIAGLFALCWLPLHIINCFTFFCPDCSHAPLWLMYLAIVLAHTNSVVNPFIYAYRIREFRQTFRKIIRSHVLRQQEPFKAAGTSARVLAAHGSDGEQVSLRLNGHPPGVWANGSAPHPERRPNGYALGLVSGGSAQESQGNTGLPDVELLSHELKGVCPEPPGLDDPLAQDGAGVS
For the molecule B1, in the data set on G proteins, the G protein activation entry is recorded as “no longer activated G proteins”. The apparent thermostability in data set [1] amounted to 47 °C.
